How the values were obtained:
[1] = biological target: T1, purified recombinant human alpha synuclein fibrils (human, UniProt P37840 1-140); assay: affinity for human alpha synuclein fibrils, IgG4P; method not given
[2] = biological target: recombinant full-length human alpha synuclein monomer (human, UniProt P37840 1-140); assay: SPR, Biacore T200, as in Example 3; Fab injected;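 further: ligands amine-coupled on CM5 chip flow cells, HBS-EP+ running buffer, kinetic data fitted with 1:1 model allowing local bulk contribution and global Rmax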
Procedure: (§1) Interaction kinetics were determined by using surface plasmon resonance technology on a Biacore T200 instrument. Three different ligands including recombinant full-length human alpha synuclein monomer, purified recombinant human alpha synuclein fibrils, and purified recombinant mouse alpha synuclein fibrils, prepared as described herein, were each immobilized on three different flow cells of a CM5 chip surface using amine-coupling chemistry. The three ligands were prepared in 10 mM NaAc, pH 3.5, and immobilized onto separate flow cell surfaces to reach an immobilization level of about 30 response units (RU) for alpha synuclein monomer, about 40 RU for human alpha synuclein fibrils, and about 300 RU for mouse alpha synuclein fibrils respectively, at a flow rate of 10 μI/min. The buffer HBS-EP+(GE healthcare Bio-Sciences AB) was used as running buffer for both ligand immobilization and kinetics assay. […] The surface was regenerated by one injection of 50 mM HCl for 90 s at 10 μI/min, and another injection of 50 mM HCl for 60 s at 10 μI/min. The data were analyzed using the Biacore T200 evaluation software (version 3.0) using the bivalent analyte model with assumed no bulk contribution (RI=0) and global Rmax for IgG format, and 1:1 model with flexible bulk contribution (local RI) and global Rmax.

[3] = biological target: T1, purified recombinant human alpha …; assay: SPR, Biacore T200, as in Example 3; Fab injected;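 further: ligands amine-coupled on CM5 chip flow cells, HBS-EP+ running buffer, kinetic data fitted with 1:1 model allowing local bulk contribution and global Rmax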
Procedure: as §1

Binder | Kd [1] [nM] | Kd [2] [nM] | koff [2] [s⁻¹] | kon [2] [M⁻¹ s⁻¹] | Kd [3] [nM] | koff [3] [s⁻¹] | kon [3] [M⁻¹ s⁻¹]
6470gL6gH23 (antibody, V domains shown) VH: EVQLLESGGGLVQPGGSLRLSCAVSGIDLSSHDMYWVRQAPGKGLEYIGAIYASGSTYYASWAKGRFTISRDNSKNTVYLQMNSLRAEDTAVYYCARIHYGNSGGLWGQGTLVTVSS VL: DIQMTQSPSSLSASVGDRVTITCQASQSVYKNNYLAWFQQKPGKAPKSLIYGASTLASGVPSRFSGSGSGTQFTLTISSLQPEDFATYYCAGYKGGRNDGFAFGGGTKVEIKR | 0.547 | – | – | – | – | – | –
6470 rabbit Fab with heavy chain mutation H31K (Fab, V domains shown) VH: QSVEESGGRLVTPGTPLTLTCTVSGIDLSSKDMYWVRQAPGKGLEYIGAIYASGSTYYASWAKGRFTISKTSTTVDLKMTSLTTEDTATYFCARIHYGNSGGLWGQGTLVTVSS VL: AIVMTQTPSSKSVAVGDTVTINCQASQSVYKNNYLAWFQQKPGQPPKQLIYGASTLASGVPSRFKGSGSGTQFTLTISDVVCDDAATYYCAGYKGGRNDGFAFGGGTEVVVKR | – | 152 | 0.938 | 6.17e+06 | 46.7 | 0.423 | 9.06e+06
6470 rabbit Fab with heavy chain mutation N99K (Fab, V domains shown) VH: QSVEESGGRLVTPGTPLTLTCTVSGIDLSSHDMYWVRQAPGKGLEYIGAIYASGSTYYASWAKGRFTISKTSTTVDLKMTSLTTEDTATYFCARIHYGKSGGLWGQGTLVTVSS VL: AIVMTQTPSSKSVAVGDTVTINCQASQSVYKNNYLAWFQQKPGQPPKQLIYGASTLASGVPSRFKGSGSGTQFTLTISDVVCDDAATYYCAGYKGGRNDGFAFGGGTEVVVKR | – | 23.9 | 0.189 | 7.89e+06 | 20.7 | 0.207 | 1.58e+07
6470 rabbit Fab with heavy chain mutation N99W (Fab, V domains shown) VH: QSVEESGGRLVTPGTPLTLTCTVSGIDLSSHDMYWVRQAPGKGLEYIGAIYASGSTYYASWAKGRFTISKTSTTVDLKMTSLTTEDTATYFCARIHYGWSGGLWGQGTLVTVSS VL: AIVMTQTPSSKSVAVGDTVTINCQASQSVYKNNYLAWFQQKPGQPPKQLIYGASTLASGVPSRFKGSGSGTQFTLTISDVVCDDAATYYCAGYKGGRNDGFAFGGGTEVVVKR | – | 61.3 | 0.566 | 9.22e+06 | 25.3 | 0.134 | 5.27e+06
6470 rabbit Fab with heavy chain mutation N99Q (Fab, V domains shown) VH: QSVEESGGRLVTPGTPLTLTCTVSGIDLSSHDMYWVRQAPGKGLEYIGAIYASGSTYYASWAKGRFTISKTSTTVDLKMTSLTTEDTATYFCARIHYGQSGGLWGQGTLVTVSS VL: AIVMTQTPSSKSVAVGDTVTINCQASQSVYKNNYLAWFQQKPGQPPKQLIYGASTLASGVPSRFKGSGSGTQFTLTISDVVCDDAATYYCAGYKGGRNDGFAFGGGTEVVVKR | – | 1310 | 0.493 | 375000 | 42.4 | 0.425 | 1.03e+07
6470 rabbit Fab with heavy chain mutation N99R (Fab, V domains shown) VH: QSVEESGGRLVTPGTPLTLTCTVSGIDLSSHDMYWVRQAPGKGLEYIGAIYASGSTYYASWAKGRFTISKTSTTVDLKMTSLTTEDTATYFCARIHYGRSGGLWGQGTLVTVSS VL: AIVMTQTPSSKSVAVGDTVTINCQASQSVYKNNYLAWFQQKPGQPPKQLIYGASTLASGVPSRFKGSGSGTQFTLTISDVVCDDAATYYCAGYKGGRNDGFAFGGGTEVVVKR | – | 16.9 | 0.17 | 1.22e+07 | 15.3 | 0.154 | 1.89e+07
6470 rabbit Fab with heavy chain mutation H31Q (Fab, V domains shown) VH: QSVEESGGRLVTPGTPLTLTCTVSGIDLSSQDMYWVRQAPGKGLEYIGAIYASGSTYYASWAKGRFTISKTSTTVDLKMTSLTTEDTATYFCARIHYGNSGGLWGQGTLVTVSS VL: AIVMTQTPSSKSVAVGDTVTINCQASQSVYKNNYLAWFQQKPGQPPKQLIYGASTLASGVPSRFKGSGSGTQFTLTISDVVCDDAATYYCAGYKGGRNDGFAFGGGTEVVVKR | – | 23.1 | 0.185 | 8e+06 | 12.4 | 0.0972 | 7.83e+06
6470 rabbit Fab with heavy chain mutation N99H (Fab, V domains shown) VH: QSVEESGGRLVTPGTPLTLTCTVSGIDLSSHDMYWVRQAPGKGLEYIGAIYASGSTYYASWAKGRFTISKTSTTVDLKMTSLTTEDTATYFCARIHYGHSGGLWGQGTLVTVSS VL: AIVMTQTPSSKSVAVGDTVTINCQASQSVYKNNYLAWFQQKPGQPPKQLIYGASTLASGVPSRFKGSGSGTQFTLTISDVVCDDAATYYCAGYKGGRNDGFAFGGGTEVVVKR | – | 0.7 | 0.00745 | 1.33e+07 | 0.4 | 0.00401 | 6.2e+06
6470 rabbit Fab with heavy chain mutation S53N (Fab, V domains shown) VH: QSVEESGGRLVTPGTPLTLTCTVSGIDLSSHDMYWVRQAPGKGLEYIGAIYANGSTYYASWAKGRFTISKTSTTVDLKMTSLTTEDTATYFCARIHYGNSGGLWGQGTLVTVSS VL: AIVMTQTPSSKSVAVGDTVTINCQASQSVYKNNYLAWFQQKPGQPPKQLIYGASTLASGVPSRFKGSGSGTQFTLTISDVVCDDAATYYCAGYKGGRNDGFAFGGGTEVVVKR | – | 1130 | 0.0517 | 45600 | 49.6 | 0.286 | 5.75e+06
6470 rabbit Fab with heavy chain mutation H31R (Fab, V domains shown) VH: QSVEESGGRLVTPGTPLTLTCTVSGIDLSSRDMYWVRQAPGKGLEYIGAIYASGSTYYASWAKGRFTISKTSTTVDLKMTSLTTEDTATYFCARIHYGNSGGLWGQGTLVTVSS VL: AIVMTQTPSSKSVAVGDTVTINCQASQSVYKNNYLAWFQQKPGQPPKQLIYGASTLASGVPSRFKGSGSGTQFTLTISDVVCDDAATYYCAGYKGGRNDGFAFGGGTEVVVKR | – | 1660 | 0.44 | 265000 | 62.3 | 0.373 | 5.98e+06

Second part, the binder after the results:

Kd [1] [nM] | Kd [2] [nM] | koff [2] [s⁻¹] | kon [2] [M⁻¹ s⁻¹] | Kd [3] [nM] | koff [3] [s⁻¹] | kon [3] [M⁻¹ s⁻¹] | Binder
0.316 | – | – | – | – | – | – | 6470gL3gH46 (antibody, V domains shown) VH: EVQLLESGGGLVQPGGSLRLSCAASGIDLSSHDMYWVRQAPGKGLEYIGAIYASGSTYYASWAKGRFTISRDNSKNTVYLQMNSLRAEDTAVYYCARIHYGNSGGLWGQGTLVTVSS VL: DIQMTQSPSSLSASVGDRVTITCQASQSVYKNNYLAWFQQKPGKAPKQLIYGASTLASGVPSRFSGSGSGTQFTLTISSLQPEDFATYYCAGYKGGRNDGFAFGGGTKVEIKR
0.58 | – | – | – | – | – | – | 6470gL3gH50 (antibody, V domains shown) VH: EVQLLESGGGLVQPGGSLRLSCAASGIDLSSHDMYWVRQAPGKGLEYIGAIYASGSTYYASWAKGRFTISRDSSKNTLYLQMNSLRAEDTAVYYCARIHYGNSGGLWGQGTLVTVSS VL: DIQMTQSPSSLSASVGDRVTITCQASQSVYKNNYLAWFQQKPGKAPKQLIYGASTLASGVPSRFSGSGSGTQFTLTISSLQPEDFATYYCAGYKGGRNDGFAFGGGTKVEIKR
0.3 | – | – | – | – | – | – | 6470gL3gH26 (antibody, V domains shown) VH: EVQLLESGGGLVQPGGSLRLSCAVSGIDLSSHDMYWVRQAPGKGLEYVGAIYASGSTYYASWAKGRFTISKDSSKNTVYLQMNSLRAEDTAVYYCARIHYGNSGGLWGQGTLVTVSS VL: DIQMTQSPSSLSASVGDRVTITCQASQSVYKNNYLAWFQQKPGKAPKQLIYGASTLASGVPSRFSGSGSGTQFTLTISSLQPEDFATYYCAGYKGGRNDGFAFGGGTKVEIKR
22.3 | – | – | – | – | – | – | 6470gL3gH27 (antibody, V domains shown) VH: EVQLLESGGGLVQPGGSLRLSCAVSGIDLSSHDMYWVRQAPGKGLEYISAIYASGSTYYASWAKGRFTISKDSSKNTVYLQMNSLRAEDTAVYYCARIHYGNSGGLWGQGTLVTVSS VL: DIQMTQSPSSLSASVGDRVTITCQASQSVYKNNYLAWFQQKPGKAPKQLIYGASTLASGVPSRFSGSGSGTQFTLTISSLQPEDFATYYCAGYKGGRNDGFAFGGGTKVEIKR
– | – | 0.0799 | 1.92e+07 | 2.9 | 0.0289 | 9.98e+06 | 6470 rabbit Fab with light chain mutation N33R (Fab, V domains shown) VH: QSVEESGGRLVTPGTPLTLTCTVSGIDLSSHDMYWVRQAPGKGLEYIGAIYASGSTYYASWAKGRFTISKTSTTVDLKMTSLTTEDTATYFCARIHYGNSGGLWGQGTLVTVSS VL: AIVMTQTPSSKSVAVGDTVTINCQASQSVYKNRYLAWFQQKPGQPPKQLIYGASTLASGVPSRFKGSGSGTQFTLTISDVVCDDAATYYCAGYKGGRNDGFAFGGGTEVVVKR
– | 1.9 | 0.0191 | 1.39e+07 | 1.4 | 0.013 | 9.2e+06 | 6470 rabbit Fab with heavy chain mutation S55N (Fab, V domains shown) VH: QSVEESGGRLVTPGTPLTLTCTVSGIDLSSHDMYWVRQAPGKGLEYIGAIYASGNTYYASWAKGRFTISKTSTTVDLKMTSLTTEDTATYFCARIHYGNSGGLWGQGTLVTVSS VL: AIVMTQTPSSKSVAVGDTVTINCQASQSVYKNNYLAWFQQKPGQPPKQLIYGASTLASGVPSRFKGSGSGTQFTLTISDVVCDDAATYYCAGYKGGRNDGFAFGGGTEVVVKR
– | 50.4 | 0.151 | 2.99e+06 | 18.8 | 0.0895 | 4.75e+06 | 6470 rabbit Fab with light chain mutation Y30W (Fab, V domains shown) VH: QSVEESGGRLVTPGTPLTLTCTVSGIDLSSHDMYWVRQAPGKGLEYIGAIYASGSTYYASWAKGRFTISKTSTTVDLKMTSLTTEDTATYFCARIHYGNSGGLWGQGTLVTVSS VL: AIVMTQTPSSKSVAVGDTVTINCQASQSVWKNNYLAWFQQKPGQPPKQLIYGASTLASGVPSRFKGSGSGTQFTLTISDVVCDDAATYYCAGYKGGRNDGFAFGGGTEVVVKR
– | 15.2 | 0.0433 | 2.84e+06 | 7.1 | 0.0498 | 6.93e+06 | 6470 rabbit Fab with light chain mutation N33K (Fab, V domains shown) VH: QSVEESGGRLVTPGTPLTLTCTVSGIDLSSHDMYWVRQAPGKGLEYIGAIYASGSTYYASWAKGRFTISKTSTTVDLKMTSLTTEDTATYFCARIHYGNSGGLWGQGTLVTVSS VL: AIVMTQTPSSKSVAVGDTVTINCQASQSVYKNKYLAWFQQKPGQPPKQLIYGASTLASGVPSRFKGSGSGTQFTLTISDVVCDDAATYYCAGYKGGRNDGFAFGGGTEVVVKR
